According to paper PMC9864931 (Vaccines, 2022):

B1: mAb WRAIR-2173 (antibody, V domains shown)
VH: QVQLQESGPGLVKPSETLSLTCSVSGDSISSSDYSWGWIRQPPGKGLEWIGTIYYIKNTYYNPSLRSRVTLSVDTSKNLFSLKLSSVTAADTAVYYCARERPPFDVVVVPAARPYNWFDPWGLGTLVIVSS
VL: QSVLMQPPSVSGAPGQRVTISCTGSSSNIGAGYDVHWYQQLPGTAPKLLIYGNNNRPSGVPDRFSGSKSGTSASLAITGLQADDEADYYCQSYDSSLSGSKVFGGGTKLTVL
B2: mAb WRAIR-2125 (antibody, V domains shown)
VH: EVQLVESGGGVVQPGRSLRLSCAASGFTFSSYGMHWVRQAPGKGLEWVAVISYDGSNKYYADSVKGRFTISRDNSKNTLSLQMNSLRPEDTAVYYCAKDSPYYYDSSGYYPGYFQDWGQGSLVTVSS
VL: DIQMTQSPSSLSASIGDRVTITCRASQTISDYLNWYQQKPGKAPNLLIYAASTLQSGVPSRFSGSGSGTDFTLTISSLQPEDFATYYCQQSYITPRTFGQGTKVEIK

How the values were obtained:
[1] = target: E. coli-produced Wuhan-Hu1 RBD (receptor binding domain of the SARS-CoV-2 spike protein, a.a. 319-542) (SARS-CoV-2 (Wuhan-Hu1), UniProt P0DTC2); test: BLI; conditions: both partners purified
[2] = target: mammalian cell-expressed Wuhan-Hu1 RBD reference standard (SARS-CoV-2 (Wuhan-Hu1), UniProt P0DTC2); test: BLI; conditions: both partners purified

Binder	binding result [1]	binding result [2]
B1	binds	
B2	binds	binds
